{"source": "patent CN113637074A", "about": "(SHANGHAI HUAIYUE BIOTECHNOLOGY CO LTD, dated 2021)", "binders": {"B1": {"name": "NKp46-1 (antibody, V domains shown)", "VH": "QVQLVQSGAEVKKPGSSVKVSCKASGGTFSNYGISWVRQAPGQGLEWIGRIIPYFGITNYAQKFQGRVTITADKSTSTAYMELSSLRSEDTAVYYCADNHLLRPGQNYYPWDYWGQGTTVTVSS", "VL": "DIQMTQSPSSLSASVGDRVTITCRASQGISNALAWYQQKPGKAPKLLIYAASRLESGVPSRFSGSGSGTDFTLTISSLQPEDFATYYCQQHYSTPPTFGQGTKVEIK", "notes": "Lead antibody from a human common light chain phage library; also called Ab-1; 孔A5"}}, "key": {"[1]": {"biological_target": "T1, 带His标签的NKp44蛋白 (human, UniProt O95944 22-190, limits assumed)", "T1 construct": "also called 人NKp44; not shown: His tag", "T1 sequence (looked up)": "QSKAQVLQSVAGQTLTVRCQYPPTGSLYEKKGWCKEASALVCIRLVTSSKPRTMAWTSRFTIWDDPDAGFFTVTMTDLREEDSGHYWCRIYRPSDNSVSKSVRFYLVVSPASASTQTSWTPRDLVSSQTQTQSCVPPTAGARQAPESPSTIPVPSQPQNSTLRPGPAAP", "test": "ELISA, His-tagged protein coated at 1 μg/ml, anti-human IgG Fc-HRP"}, "[2]": {"biological_target": "T2, 带His标签的NKp30蛋白 (human, UniProt O14931 19-138, limits assumed)", "T2 construct": "also called 人NKp30; not shown: His tag", "T2 sequence (looked up)": "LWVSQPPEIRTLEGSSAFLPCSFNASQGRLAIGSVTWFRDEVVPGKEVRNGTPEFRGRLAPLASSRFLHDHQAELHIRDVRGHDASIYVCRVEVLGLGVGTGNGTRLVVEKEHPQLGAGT", "test": "ELISA, His-tagged protein coated at 1 μg/ml, anti-human IgG Fc-HRP"}}}
{"binder": "B1", "values": [{"measurement": "binding result", "setting": "[1]", "value": "no binding (tested: 10μg/ml)"}, {"measurement": "binding result", "setting": "[2]", "value": "no binding (tested: 10μg/ml)"}]}
